Measured values: patent US20230159643A1 (H LUNDBECK A S, published 2023)

Tests used:
Test in all cases: BLI Octet 384RED, antibody on Protein A sensor, Sortilin construct in solution
[1] = target: T1, Sortilin SORTECDBAP_hB01-05 (human/tetraodon chimera)
T1 construct: Shuffle construct
T1 chain: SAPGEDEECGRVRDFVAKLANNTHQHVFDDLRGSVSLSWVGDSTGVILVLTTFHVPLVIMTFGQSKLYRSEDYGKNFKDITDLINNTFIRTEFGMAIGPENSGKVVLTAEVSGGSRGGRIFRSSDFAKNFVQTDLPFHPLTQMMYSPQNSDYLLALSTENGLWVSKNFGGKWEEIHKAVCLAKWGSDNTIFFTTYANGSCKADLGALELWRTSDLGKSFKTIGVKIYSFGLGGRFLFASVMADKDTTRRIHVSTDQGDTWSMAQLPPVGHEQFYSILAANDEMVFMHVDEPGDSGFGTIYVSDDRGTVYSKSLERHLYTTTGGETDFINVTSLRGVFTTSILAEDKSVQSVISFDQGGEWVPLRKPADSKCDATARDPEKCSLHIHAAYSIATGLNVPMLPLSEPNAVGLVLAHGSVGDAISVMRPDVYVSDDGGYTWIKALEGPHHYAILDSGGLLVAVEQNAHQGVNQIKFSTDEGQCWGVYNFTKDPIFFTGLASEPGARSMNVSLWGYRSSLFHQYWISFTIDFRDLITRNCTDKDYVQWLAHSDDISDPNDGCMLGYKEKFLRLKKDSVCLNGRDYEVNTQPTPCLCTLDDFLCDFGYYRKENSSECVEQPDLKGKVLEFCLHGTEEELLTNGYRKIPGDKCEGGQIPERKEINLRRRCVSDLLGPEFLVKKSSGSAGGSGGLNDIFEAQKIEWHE
Protocol: (§1) Binding kinetics of anti-Sortilin HuMab antibodies to Sortilin were determined using Octet 384RED (Fortebio, Menlo Park, USA). HuMab solutions of 2 μg/ml were made by dilution in sample diluent (ForteBio, art. No. 18-5028). Prot A sensors (ForteBio, art. no. 18-0004) were prewetted with kinetics buffer (1:10 sample diluent in PBS) for at least 600 seconds. Subsequently sensors were immobilized with HuMab solution for 600 seconds. A baseline response was obtained by dipping in kinetics buffer for 120 seconds. Association of SORTECD constructs was performed during a 1000 seconds incubation. This was followed by dissociation in kinetics buffer for 100 seconds. After dissociation, sensors were regenerated (10 mM Glycine pH 1.0) and neutralized (kinetics buffer) 3 times for 5 seconds. […] A molecular weight of 76.8 kDA was used for SORTECDHis. Data was fitted with ForteBio Analysis 6.4 software, using a global full fit.

[2] = target: T2, Sortilin SORTECDBAP_hB45678 (human/tetraodon chimera)
T2 construct: Shuffle construct
T2 chain: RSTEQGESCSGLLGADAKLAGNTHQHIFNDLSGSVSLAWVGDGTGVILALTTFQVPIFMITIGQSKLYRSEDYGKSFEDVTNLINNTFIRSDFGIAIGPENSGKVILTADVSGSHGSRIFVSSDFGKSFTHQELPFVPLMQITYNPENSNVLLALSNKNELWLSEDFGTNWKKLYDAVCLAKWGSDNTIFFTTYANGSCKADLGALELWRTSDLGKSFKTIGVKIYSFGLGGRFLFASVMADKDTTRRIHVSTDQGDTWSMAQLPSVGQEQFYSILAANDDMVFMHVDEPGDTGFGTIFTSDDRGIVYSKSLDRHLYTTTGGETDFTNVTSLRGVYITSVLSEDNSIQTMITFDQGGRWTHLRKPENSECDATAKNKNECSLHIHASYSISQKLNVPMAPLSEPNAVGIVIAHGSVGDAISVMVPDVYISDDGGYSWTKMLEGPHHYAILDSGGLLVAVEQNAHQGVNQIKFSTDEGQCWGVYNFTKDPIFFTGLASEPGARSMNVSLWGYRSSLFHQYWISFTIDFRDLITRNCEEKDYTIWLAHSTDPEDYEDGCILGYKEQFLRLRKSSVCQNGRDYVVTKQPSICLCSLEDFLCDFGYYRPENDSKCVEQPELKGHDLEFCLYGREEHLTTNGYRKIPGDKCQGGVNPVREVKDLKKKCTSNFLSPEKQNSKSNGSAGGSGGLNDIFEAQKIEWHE
Protocol: as §1

[3] = target: T3, Sortilin SORTECDBAP_hB12390 (human/tetraodon chimera)
T3 construct: Shuffle construct
T3 chain: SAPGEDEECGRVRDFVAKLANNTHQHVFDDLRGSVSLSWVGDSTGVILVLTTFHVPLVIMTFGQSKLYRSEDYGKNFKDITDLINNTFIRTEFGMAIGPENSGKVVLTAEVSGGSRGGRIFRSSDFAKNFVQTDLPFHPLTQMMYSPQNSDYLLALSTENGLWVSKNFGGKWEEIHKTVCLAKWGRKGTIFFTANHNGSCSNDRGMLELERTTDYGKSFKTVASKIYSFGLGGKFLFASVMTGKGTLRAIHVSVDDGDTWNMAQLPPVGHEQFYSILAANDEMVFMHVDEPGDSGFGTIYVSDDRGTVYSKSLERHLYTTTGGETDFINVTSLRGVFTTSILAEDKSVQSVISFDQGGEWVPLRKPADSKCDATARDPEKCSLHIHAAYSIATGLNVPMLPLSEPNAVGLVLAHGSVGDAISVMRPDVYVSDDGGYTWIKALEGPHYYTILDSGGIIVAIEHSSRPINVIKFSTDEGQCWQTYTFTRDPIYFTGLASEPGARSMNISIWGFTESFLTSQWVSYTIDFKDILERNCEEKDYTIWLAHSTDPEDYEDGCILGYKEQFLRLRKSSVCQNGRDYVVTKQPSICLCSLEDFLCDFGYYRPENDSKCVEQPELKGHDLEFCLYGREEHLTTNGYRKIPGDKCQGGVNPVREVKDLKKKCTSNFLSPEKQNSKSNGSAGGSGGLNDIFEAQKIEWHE
Protocol: as §1

B1: 1320 (antibody, V domains shown)
VH: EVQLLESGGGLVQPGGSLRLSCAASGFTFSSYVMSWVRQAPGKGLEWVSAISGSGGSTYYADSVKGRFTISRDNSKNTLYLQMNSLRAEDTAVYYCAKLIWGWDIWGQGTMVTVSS
VL: EIVLTQSPATLSLSPGERATLSCRASQSVSSYLAWYQQRPGQAPRLLIYDASNRATGIPARFSGSGSGTDFTLSISSLEPEDFAVYYCQQRTNWSITFGQGTRLEIK
notes: also called IgG1-6003-1320; Antibody 1320
binding result [1]: no binding (tested: 10 µg/ml construct) | binding result [2]: no binding (tested: 10 µg/ml construct) | EC50 [3]: 0.0123 µg/mL
